Data on one substance can be found in PMC5668257.

The target of this assay is EB1 (dog (endogenous in MDCK)). Nature of the assay: FRET or BRET; immuno-FRET by acceptor photobleaching at the centrosome area of fixed mitotic MDCK cells; primary antibodies with secondary antibodies labelled with Alexa 555 (donor) and Cy5 or Alexa 633 (acceptor), 1 donor : 2 acceptor. A general note: In BRET a luciferase serves as donor, and the signal depends on an acceptor being close.

AKAP350 (natural protein) registered an FRET efficiency (donor AKAP350, acceptor EB1) of 11% and an FRET efficiency (donor EB1, acceptor AKAP350) of 5%.
